Laboratory results reported in patent US20150004190A1.

B1: 2F5 IgA2 (antibody, V domains shown)
VH: RITLKESGPPLVKPTQTLTLTCSFSGFSLSDFGVGVGWIRQPPGKALEWLAIIYSDDDKRYSPSLNTRLTITKDTSKNQVVLVMTRVSPVDTATYFCAHRRGPTTLFGVPIARGPVNAMDVWGQGITVTI
VL: ALQLTQSPSSLSASVGDRITITCRASQGVTSALAWYRQKPGSPPQLLIYDASSLESGVPSRFSGSGSGTEFTLTISTLRPEDFATYYCQQLHFYPHTFGGGTRVDVR
B2: 2F5 IgG1 (antibody, V domains shown)
VH: B1 VH
VL: B1 VL

Tests used:
[1] = target: Peptide ELDKWA (HIV-1); assay: ELISA on coated peptide
[2] = target: Peptide ELDKWA (HIV-1); assay: ELISA on coated peptide (FIG. 1)
[3] = target: Peptide ELDKWA (HIV-1); assay: competitive ELISA, competitor 0.027 nM 2F5 IgA2 detected with anti-human IgA

Row | Binder | fold higher efficacy as compared to IgG1 [1] [fold] | antibody concentration of equivalent binding activity [2] [nM] | concentration needed to compete [3] [nM]
1 | B1 | > 100 | 0.05 | –
2 | B2 | – | 6.25 | 25
